# Data published in patent US20250339531A1, “DUX4 POLYPEPTIDES AND NUCLEIC ACIDS FOR TREATING INFLAMMATORY AND AUTOIMMUNE CONDITIONS” (Fred Hutchinson Cancer Center, priority 2021, published 2025).
# B1: P13674 (protein, UniProt P13674 1-534, looked up)
# chain: MIWYILIIGILLPQSLAHPGFFTSIGQMTDLIHTEKDLVTSLKDYIKAEEDKLEQIKKWAEKLDRLTSTATKDPEGFVGHPVNAFKLMKRLNTEWSELENLVLKDMSDGFISNLTIQRQYFPNDEDQVGAAKALLRLQDTYNLDTDTISKGNLPGVKHKSFLTAEDCFELGKVAYTEADYYHTELWMEQALRQLDEGEISTIDKVSVLDYLSYAVYQQGDLDKALLLTKKLLELDPEHQRANGNLKYFEYIMAKEKDVNKSASDDQSDQKTTPKKKGVAVDYLPERQKYEMLCRGEGIKMTPRRQKKLFCRYHDGNRNPKFILAPAKQEDEWDKPRIIRFHDIISDAEIEIVKDLAKPRLRRATISNPITGDLETVHYRISKSAWLSGYENPVVSRINMRIQDLTGLDVSTAEELQVANYGVGGQYEPHFDFARKDEPDAFKELGTGNRIATWLFYMSDVSAGGATVFPEVGASVWPKKGTAVFWYNLFASGEGDYSTRHAACPVLVGNKWVSNKWLHERGQEFRRPCTLSELE
# modifications: full-length
# B2: P05141 (protein, UniProt P05141 1-298, looked up)
# chain: MTDAAVSFAKDFLAGGVAAAISKTAVAPIERVKLLLQVQHASKQITADKQYKGIIDCVVRIPKEQGVLSFWRGNLANVIRYFPTQALNFAFKDKYKQIFLGGVDKRTQFWLYFAGNLASGGAAGATSLCFVYPLDFARTRLAADVGKAGAEREFRGLGDCLVKIYKSDGIKGLYQGFNVSVQGIIIYRAAYFGIYDTAKGMLPDPKNTHIVISWMIAQTVTAVAGLTSYPFDTVRRRMMMQSGRKGTDIMYTGTLDCWRKIARDEGGKAFFKGAWSNVLRGMGGAFVLVLYDEIKKYT
# modifications: full-length
# B3: O43175 (protein, UniProt O43175 1-533, looked up)
# chain: MAFANLRKVLISDSLDPCCRKILQDGGLQVVEKQNLSKEELIAELQDCEGLIVRSATKVTADVINAAEKLQVVGRAGTGVDNVDLEAATRKGILVMNTPNGNSLSAAELTCGMIMCLARQIPQATASMKDGKWERKKFMGTELNGKTLGILGLGRIGREVATRMQSFGMKTIGYDPIISPEVSASFGVQQLPLEEIWPLCDFITVHTPLLPSTTGLLNDNTFAQCKKGVRVVNCARGGIVDEGALLRALQSGQCAGAALDVFTEEPPRDRALVDHENVISCPHLGASTKEAQSRCGEEIAVQFVDMVKGKSLTGVVNAQALTSAFSPHTKPWIGLAEALGTLMRAWAGSPKGTIQVITQGTSLKNAGNCLSPAVIVGLLKEASKQADVNLVNAKLLVKEAGLNVTTSHSPAAPGEQGFGECLLAVALAGAPYQAVGLVQGTTPVLQGLNGAVFRPEVPLRRDLPLLLFRTQTSDPAMLPTMIGLLAEAGVRLLSYQTSLVSDGETWHVMGISSLLPSLEAWKQHVTEAFQFHF
# modifications: full-length
# B4: P50454 (protein, UniProt P50454 1-418, looked up)
# chain: MRSLLLLSAFCLLEAALAAEVKKPAAAAAPGTAEKLSPKAATLAERSAGLAFSLYQAMAKDQAVENILVSPVVVASSLGLVSLGGKATTASQAKAVLSAEQLRDEEVHAGLGELLRSLSNSTARNVTWKLGSRLYGPSSVSFADDFVRSSKQHYNCEHSKINFRDKRSALQSINEWAAQTTDGKLPEVTKDVERTDGALLVNAMFFKPHWDEKFHHKMVDNRGFMVTRSYTVGVMMMHRTGLYNYYDDEKEKLQIVEMPLAHKLSSLIILMPHHVEPLERLEKLLTKEQLKIWMGKMQKKAVAISLPKGVVEVTHDLQKHLAGLGLTEAIDKNKADLSRMSGKKDLYLASVFHATAFELDTDGNPFDQDIYGREELRSPKLFYADHPFIFLVRDTQSGSLLFIGRLVRPKGDKMRDEL
# modifications: full-length
# B5: O95782 (protein, UniProt O95782 1-977, looked up)
# chain: MPAVSKGDGMRGLAVFISDIRNCKSKEAEIKRINKELANIRSKFKGDKALDGYSKKKYVCKLLFIFLLGHDIDFGHMEAVNLLSSNKYTEKQIGYLFISVLVNSNSELIRLINNAIKNDLASRNPTFMCLALHCIANVGSREMGEAFAADIPRILVAGDSMDSVKQSAALCLLRLYKASPDLVPMGEWTARVVHLLNDQHMGVVTAAVSLITCLCKKNPDDFKTCVSLAVSRLSRIVSSASTDLQDYTYYFVPAPWLSVKLLRLLQCYPPPEDAAVKGRLVECLETVLNKAQEPPKSKKVQHSNAKNAILFETISLIIHYDSEPNLLVRACNQLGQFLQHRETNLRYLALESMCTLASSEFSHEAVKTHIDTVINALKTERDVSVRQRAADLLYAMCDRSNAKQIVSEMLRYLETADYAIREEIVLKVAILAEKYAVDYSWYVDTILNLIRIAGDYVSEEVWYRVLQIVTNRDDVQGYAAKTVFEALQAPACHENMVKVGGYILGEFGNLIAGDPRSSPPVQFSLLHSKFHLCSVATRALLLSTYIKFINLFPETKATIQGVLRAGSQLRNADVELQQRAVEYLTLSSVASTDVLATVLEEMPPFPERESSILAKLKRKKGPGAGSALDDGRRDPSSNDINGGMEPTPSTVSTPSPSADLLGLRAAPPPAAPPASAGAGNLLVDVFDGPAAQPSLGPTPEEAFLSELEPPAPESPMALLADPAPAADPGPEDIGPPIPEADELLNKFVCKNNGVLFENQLLQIGVKSEFRQNLGRMYLFYGNKTSVQFQNFSPTVVHPGDLQTQLAVQTKRVAAQVDGGAQVQQVLNIECLRDFLTPPLLSVRFRYGGAPQALTLKLPVTINKFFQPTEMAAQDFFQRWKQLSLPQQEAQKIFKANHPMDAEVTKAKLLGFGSALLDNVDPNPENFVGAGIIQTKALQVGCLLRLEPNAQAQMYRLTLRTSKEPVSRHLCELLAQQF
# modifications: full-length
# B6: Q12797 (protein, UniProt Q12797 1-758, looked up)
# chain: MAQRKNAKSSGNSSSSGSGSGSTSAGSSSPGARRETKHGGHKNGRKGGLSGTSFFTWFMVIALLGVWTSVAVVWFDLVDYEEVLGKLGIYDADGDGDFDVDDAKVLLGLKERSTSEPAVPPEEAEPHTEPEEQVPVEAEPQNIEDEAKEQIQSLLHEMVHAEHVEGEDLQQEDGPTGEPQQEDDEFLMATDVDDRFETLEPEVSHEETEHSYHVEETVSQDCNQDMEEMMSEQENPDSSEPVVEDERLHHDTDDVTYQVYEEQAVYEPLENEGIEITEVTAPPEDNPVEDSQVIVEEVSIFPVEEQQEVPPETNRKTDDPEQKAKVKKKKPKLLNKFDKTIKAELDAAEKLRKRGKIEEAVNAFKELVRKYPQSPRARYGKAQCEDDLAEKRRSNEVLRGAIETYQEVASLPDVPADLLKLSLKRRSDRQQFLGHMRGSLLTLQRLVQLFPNDTSLKNDLGVGYLLIGDNDNAKKVYEEVLSVTPNDGFAKVHYGFILKAQNKIAESIPYLKEGIESGDPGTDDGRFYFHLGDAMQRVGNKEAYKWYELGHKRGHFASVWQRSLYNVNGLKAQPWWTPKETGYTELVKSLERNWKLIRDEGLAVMDKAKGLFLPEDENLREKGDWSQFTLWQQGRRNENACKGAPKTCTLLEKFPETTGCRRGQIKYSIMHPGTHVWPHTGPTNCRLRMHLGLVIPKEGCKIRCANETKTWEEGKVLIFDDSFEHEVWQDASSFRLIFIVDVWHPELTPQQRRSLPAI
# modifications: full-length
# B7: Q00325 (protein, UniProt Q00325 1-362, looked up)
# chain: MFSSVAHLARANPFNTPHLQLVHDGLGDLRSSSPGPTGQPRRPRNLAAAAVEEQYSCDYGSGRFFILCGLGGIISCGTTHTALVPLDLVKCRMQVDPQKYKGIFNGFSVTLKEDGVRGLAKGWAPTFLGYSMQGLCKFGFYEVFKVLYSNMLGEENTYLWRTSLYLAASASAEFFADIALAPMEAAKVRIQTQPGYANTLRDAAPKMYKEEGLKAFYKGVAPLWMRQIPYTMMKFACFERTVEALYKFVVPKPRSECSKPEQLVVTFVAGYIAGVFCAIVSHPADSVVSVLNKEKGSSASLVLKRLGFKGVWKGLFARIIMIGTLTALQWFIYDSVKVYFRLPRPPPPEMPESLKKKLGLTQ
# modifications: full-length
# B8: P06702 (protein, UniProt P06702 1-114, looked up)
# chain: MTCKMSQLERNIETIINTFHQYSVKLGHPDTLNQGEFKELVRKDLQNFLKKENKNEKVIEHIMEDLDTNADKQLSFEEFIMLMARLTWASHEKMHEGDEGPGHHHKPGLGEGTP
# modifications: full-length
# B9: P04843 (protein, UniProt P04843 1-607, looked up)
# chain: MEAPAAGLFLLLLLGTWAPAPGSASSEAPPLINEDVKRTVDLSSHLAKVTAEVVLAHLGGGSTSRATSFLLALEPELEARLAHLGVQVKGEDEEENNLEVRETKIKGKSGRFFTVKLPVALDPGAKISVIVETVYTHVLHPYPTQITQSEKQFVVFEGNHYFYSPYPTKTQTMRVKLASRNVESYTKLGNPTRSEDLLDYGPFRDVPAYSQDTFKVHYENNSPFLTITSMTRVIEVSHWGNIAVEENVDLKHTGAVLKGPFSRYDYQRQPDSGISSIRSFKTILPAAAQDVYYRDEIGNVSTSHLLILDDSVEMEIRPRFPLFGGWKTHYIVGYNLPSYEYLYNLGDQYALKMRFVDHVFDEQVIDSLTVKIILPEGAKNIEIDSPYEISRAPDELHYTYLDTFGRPVIVAYKKNLVEQHIQDIVVHYTFNKVLMLQEPLLVVAAFYILFFTVIIYVRLDFSITKDPAAEARMKVACITEQVLTLVNKRIGLYRHFDETVNRYKQSRDISTLNSGKKSLETEHKALTSEIALLQSRLKTEGSDLCDRVSEMQKLDAQVKELVLKSAVEAERLVAGKLKKDTYIENEKLISGKRQELVTKIDHILDAL
# modifications: full-length
# Tested on: proteins that co-immunoprecipitated with DUX4-CTD constructs expressed in MB135 myoblasts
# Assay: LC-MS of proteins co-immunoprecipitated with DUX4-CTD (Table 1) and western validation
# Type: binding, human
# Set-up: key to 4. mL1dL2 + Dox + IFNG / 4. + IFNG mix / 4. longCTD + Dox + IFNG / 3. + IFNg + Dox longCTD / 3. + Dox longCTD / 3. + IFNG longCTD: peptide-spectrum matches (PSMs) per protein
# Settings: for 4. longCTD + Dox + IFNG: LC-MS counts of the listed protein co-immunoprecipitated with DUX4-CTD bait longCTD, experiment 4, Dox + IFNG; for 3. + Dox longCTD: experiment 3, Dox only; for 3. + IFNg + Dox longCTD: experiment 3, IFNg + Dox; for SUM of PSMS: sum over all samples
# In short: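 Two independent experiments compared uninduced, doxycycline and doxycycline+IFNG MB135iDUX4-CTD (plus MB135iDUX4mL1dL2) myoblasts. Anti-FLAG pulldowns (3 h, 4 °C) were eluted in LDS buffer for western validation or with FLAG peptide for trypsin digestion and Orbitrap LC-MS; hits needed ≥2 PSMs in both experiments, ranked by total PSMs.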
Molecule,4. longCTD + Dox + IFNG,3. + Dox longCTD (bait longCTD),3. + IFNg + Dox longCTD (bait longCTD),SUM of PSMS,"3. + IFNG longCTD (bait longCTD, experiment 3, IFNG only, no doxycycline (bait at background level))"
B1,9,3,5,45,–
B2,6,–,3,9,–
B3,1,1,3,6,–
B4,–,–,1,11,–
B5,2,10,31,48,–
B6,–,1,9,11,–
B7,2,–,1,8,–
B8,–,1,1,4,–
B9,2,4,14,30,1
